In patent US20160130327A1:

Legend:
[1] = target: revertant virus (AD169 CMV with the pentameric gH complex restored); assay: antibody-titration EIA, coated revertant virions
[2] = target: revertant virus (AD169 CMV with the pentameric gH complex restored); assay: cell-based or functional assay

“human polyclonal CMV hyperimmune IgG (HIG, CytoGam) (antibody)” showed an EC50 [1] of 2 µg/mL and an EC50 neutralizing (ARPE-19 cells) [2] of 1 µg/mL.
